Patent US20240109974A1 (SHANDONG SIMCERE BIOPHARMACEUTICAL, published 2024)

T1: Human TNFR2-His (Sino 10417-H08H) (human, UniProt P20333 23-257)
T1 construct: Bought protein; also called recombinant human TNFR2 protein; not shown: His tag
T1 sequence (looked up): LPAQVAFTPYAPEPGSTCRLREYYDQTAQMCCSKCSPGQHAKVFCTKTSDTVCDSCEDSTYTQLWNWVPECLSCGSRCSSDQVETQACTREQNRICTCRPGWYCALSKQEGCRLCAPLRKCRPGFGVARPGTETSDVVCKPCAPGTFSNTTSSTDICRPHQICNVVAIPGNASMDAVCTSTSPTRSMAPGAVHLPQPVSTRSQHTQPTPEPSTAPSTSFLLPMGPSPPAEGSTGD

T2: human TNFR2 on the surface of CHO-TNFR2 cells (human, UniProt P20333 23-461)
T2 construct: whole, on cells
T2 sequence (looked up): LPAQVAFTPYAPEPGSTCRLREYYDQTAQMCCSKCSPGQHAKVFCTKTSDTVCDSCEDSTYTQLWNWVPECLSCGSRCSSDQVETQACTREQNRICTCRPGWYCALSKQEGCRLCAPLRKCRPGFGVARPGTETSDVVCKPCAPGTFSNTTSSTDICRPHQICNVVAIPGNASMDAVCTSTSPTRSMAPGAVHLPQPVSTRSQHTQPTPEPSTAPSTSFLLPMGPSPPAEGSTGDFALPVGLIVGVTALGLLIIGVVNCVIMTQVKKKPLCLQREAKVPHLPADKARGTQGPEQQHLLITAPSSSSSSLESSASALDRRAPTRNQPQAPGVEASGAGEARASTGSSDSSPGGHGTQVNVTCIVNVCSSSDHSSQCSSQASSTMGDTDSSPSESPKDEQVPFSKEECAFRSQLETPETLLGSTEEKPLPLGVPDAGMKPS

T3: human TNFR2 (Novoprotein, Cat #C830) (human, UniProt P20333 23-257, limits assumed)
T3 construct: construct not described; also called human TNFR2 protein
T3 sequence (looked up): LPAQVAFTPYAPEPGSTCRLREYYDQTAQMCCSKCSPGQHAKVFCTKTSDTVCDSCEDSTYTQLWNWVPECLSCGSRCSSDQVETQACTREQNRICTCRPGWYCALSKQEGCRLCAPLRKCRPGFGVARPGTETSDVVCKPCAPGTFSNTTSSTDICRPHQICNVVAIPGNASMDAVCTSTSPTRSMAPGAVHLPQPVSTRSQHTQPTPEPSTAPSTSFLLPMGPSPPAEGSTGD


How the values were obtained:
[1] = target: T1, Human TNFR2-His (Sino 10417-H08H); assay: ELISA, human TNFR2-His coated; EC50 against 224-WT
Protocol: The test humanized antibody against TNFR2 (as described in Example 1, the antibody was comprised of variable regions linked to IgG-Fc; the WT chimeric antibody also adopted the IgG-Fc structure) was subjected to 3.33-fold gradient dilution, loaded with 100 μl/well, and incubated with shaking at room temperature for 1.5 hours. The plate was washed, and then a working solution of murine anti-human IgG Fc-HRP (diluted at 1:10000) was added, loaded with 100 μl/well, and incubated with shaking at room temperature for 1.0 hour. The plate was washed again, and then the substrate TMB of HRP was added to develop colour. A stop solution was added to stop the reaction, and then a microplate reader (MD 13) was used to read the absorbance value. The binding curve of an antibody was drawn with antibody concentration as the abscissa and corresponding OD value as the ordinate, and fitted with four parameters (GraphPad Prism9) to calculate the EC50 value. The smaller the EC50 value, the stronger the binding ability of an antibody to human/cynomolgus monkey TNFR2. The binding effect of a humanized antibody was normalized to its corresponding human-murine chimeric antibody WT (see SEQ ID NOs: 38-43 for the sequence). The higher the percentage value, the better the binding effect of the humanized antibody. The results of binding of an anti-TNFR2 antibody to a human TNFR2 protein are shown in FIG. 1 and Table 4, and the results of binding of an anti-TNFR2 antibody to cynomolgus monkey TNFR2 are shown in FIG. 2 and Table 4.

[2] = target: T2, human TNFR2 on the surface of CHO-TNFR2 …; assay: flow cytometry on CHO-TNFR2 cells; EC50 against 224-WT
Protocol: The transfected full-length plasmid of human TNFR2 was purchased from Sino Biological (Cat #HG10417-UT, NCBI Ref Seq: NM_001066.2). The experiment was conducted at a cell density within 80%. The cell medium was discarded; the cells were rinsed with PBS, and digested with 1 ml trypsin for 2 minutes; the digestion was stopped with a Ham's F12 complete medium containing 10% FBS, and then a cell suspension was made. The cell suspension was counted, and then an appropriate amount of cell suspension was centrifuged at 350×g; the supernatant was discarded; a corresponding volume of blocking solution (10% FBS+PBS) at a density of 1×10⁷ cells/ml was added to resuspend the cells, and the mixture was incubated at 4° C. for 30 minutes. After the incubation, the mixture was centrifuged at 350×g to remove the supernatant, and the cells were resuspended in a staining buffer (2% FBS+PBS) to a density of 2×10⁶ cells/ml, and spread onto a 96-well plate, with 50 μl of cell suspension added to each well for later use. The antibody was diluted with PBS for 10-fold gradient dilution from the highest concentration of 20 μg/m (twice the concentration); the diluted antibody was added to the well containing 50 μl of cell suspension, and placed on a microplate shaker for shaking at 500 rpm for 1 minute, so that the antibody was fully mixed with the cells; the mixture was incubated at 4° C. for 1 h. After the incubation, the cells were washed twice with the staining buffer, with 100 μl per well, and centrifuged at 350-g for 5 minutes, and the supernatant was discarded. The PE goat anti-Human IgG Fc antibody (ebioscience, Cat #12-4998-82) was diluted 250-fold with the staining buffer, with a volume of 100 μl per well added to the washed cell wells; the mixture was mixed evenly, and stained at 4° C. for 30 minutes. After the staining, similarly, the cells were washed twice with the staining buffer; finally, the cells were resuspended in 200 μl of staining buffer; signals were detected by a flow cytometer (Thermo Attune NxT). The stronger the signal, the stronger the binding ability of an antibody to TNFR2. The binding curve of an antibody was drawn with antibody concentration as the abscissa and corresponding mean fluorescence intensity (MFI) fold as the ordinate, and fitted with four parameters (GraphPad Prism9) to calculate the EC50 value.

[3] = target: T3, human TNFR2 (Novoprotein, Cat #C830); assay: competition ELISA, competitor human TNFα-Biotin; IC50 against 224-WT
Protocol: 1 μg/ml human TNFR2 (Novoprotein, Cat #C830) was pre-coated with 100 μl/well […] in an ELISA plate. All the test TNFR2 antibodies were subjected to 2.5-fold gradient dilution from the highest concentration of 30 μg/ml; the diluted antibodies were mixed with 15 ng/ml human TNFα-Biotin (Acro Biosystem, Cat #TNA-H82E3) in equal volume, respectively; the resulting mixture was added to the ELISA plate at 100 μl/well, and incubated with shaking at room temperature for 2.0 hours. The plate was washed, and then a Streptavidin-HRP working solution (diluted at 1:10000) was added at 100 μl/well, and the mixture was incubated with shaking at room temperature for 40 minutes. The plate was washed again, and then the substrate TMB of HRP was added to develop colour. A stop solution was added to stop the reaction, and then a microplate reader (MD 13) was used to read the absorbance value. The inhibitory curve of an antibody was drawn with antibody concentration as the abscissa and corresponding OD value as the ordinate, and fitted with four parameters (GraphPad Prism9) to calculate the IC50 value. The smaller the IC50 value, the stronger the ability of an antibody to inhibit the binding of human TNFα to human TNFR2. The blocking effect of a humanized antibody was normalized to its corresponding human-murine chimeric antibody WT. The higher the percentage value, the better the inhibitory effect of the humanized antibody.

| Binder | % Relative activity (WT antibody/test antibody) [1] | % Relative activity (WT antibody/test antibody) [2] | % Relative activity (WT antibody/test antibody) [3] |
| --- | --- | --- | --- |
| 224-Hu1 (antibody, V domains shown, Humanized form of #224; also called VH8 + VL6) VH: QVQLVQSGAEVKKPGASVKVSCKASGFNNKDIYMHWVRQAPGQGLEWIGRIDPATGNTKHDPKFQDRVTMTSDTSTNTVYMELSSLRSEDTAVYYCARSPYGDFGAMDYWGQGTLVTVSS VL: DIQMTQSPSSLSASVGDRVTITCTASSSVSSNYLHWYQQKPGKAPKLWIYSTSNLPSGVPSRFSGSGSGTDFTLTISSLQPEDFATYYCHQYHRSPWTFGQGTKVEIK | 143% | 94.5% | 106% |
| 224-Hu7 (antibody, V domains shown, Humanized form of #224; also called VH9 + VL10) VH: QVQLVQSGSELKKPGASVKVSCKASGFNNKDIYMHWVRQAPGQGLEWMGRIDPATGNTKHDPKFQDKAVLSSDTSVSTAYLQISSLKAEDTAVYYCARSPYGDFGAMDYWGQGTLVTVSS VL: DIQMTQSPSSLSASVGDRVTITCTASSSVSSNYLHWYQQKPGKAPKLLIYSTSNLPSGVPSRFSGSGSGTDFTLTISSLQPEDFATYYCHQYHRSPWTFGQGTKVEIK | 110% | 140% | 106% |
| 224-Hu2 (antibody, V domains shown, Humanized form of #224; also called VH9 + VL7) VH: QVQLVQSGSELKKPGASVKVSCKASGFNNKDIYMHWVRQAPGQGLEWMGRIDPATGNTKHDPKFQDKAVLSSDTSVSTAYLQISSLKAEDTAVYYCARSPYGDFGAMDYWGQGTLVTVSS VL: DIQMTQSPSSLSASVGDRVTITCTASSSVSSNYLHWYQQKPGSSPKLWIYSTSNLPSGVPSRFSGSGSGTDFTLTISSLQPEDFATYYCHQYHRSPWTFGQGTKVEIK | 138% | 119% | 121% |
| 224-Hu4 (antibody, V domains shown, Humanized form of #224; also called VH9 + VL6) VH: QVQLVQSGSELKKPGASVKVSCKASGFNNKDIYMHWVRQAPGQGLEWMGRIDPATGNTKHDPKFQDKAVLSSDTSVSTAYLQISSLKAEDTAVYYCARSPYGDFGAMDYWGQGTLVTVSS VL: DIQMTQSPSSLSASVGDRVTITCTASSSVSSNYLHWYQQKPGKAPKLWIYSTSNLPSGVPSRFSGSGSGTDFTLTISSLQPEDFATYYCHQYHRSPWTFGQGTKVEIK | 108% | 131% | 105% |
| 224-Hu3 (antibody, V domains shown, Humanized form of #224; also called VH9 + VL8) VH: QVQLVQSGSELKKPGASVKVSCKASGFNNKDIYMHWVRQAPGQGLEWMGRIDPATGNTKHDPKFQDKAVLSSDTSVSTAYLQISSLKAEDTAVYYCARSPYGDFGAMDYWGQGTLVTVSS VL: DIQMTQSPSSLSASVGDRVTITCTASSSVSSNYLHWYQQKPGKAPKLLIYSTSNLPSGVPSRFSGSGSGTDFTLTISSLQAEDAATYYCHQYHRSPWTFGQGTKVEIK | 122% | 116% | 120% |
| 224-Hu5 (antibody, V domains shown, Humanized form of #224; also called VH9 + VL9) VH: QVQLVQSGSELKKPGASVKVSCKASGFNNKDIYMHWVRQAPGQGLEWMGRIDPATGNTKHDPKFQDKAVLSSDTSVSTAYLQISSLKAEDTAVYYCARSPYGDFGAMDYWGQGTLVTVSS VL: DIQMTQSPSSLSASVGDRVTITCTASSSVSSNYLHWYQQKPGKAPKLLIYSTSNLPSGVPSRFSGSGSGTDYSLTISSLQPEDFATYYCHQYHRSPWTFGQGTKVEIK | 99.4% | 112% | 93.1% |
| 224-Hu6 (antibody, V domains shown, Humanized form of #224; also called VH8 + VL7) VH: QVQLVQSGAEVKKPGASVKVSCKASGFNNKDIYMHWVRQAPGQGLEWIGRIDPATGNTKHDPKFQDRVTMTSDTSTNTVYMELSSLRSEDTAVYYCARSPYGDFGAMDYWGQGTLVTVSS VL: DIQMTQSPSSLSASVGDRVTITCTASSSVSSNYLHWYQQKPGSSPKLWIYSTSNLPSGVPSRFSGSGSGTDFTLTISSLQPEDFATYYCHQYHRSPWTFGQGTKVEIK | 104% | 139% | 115% |
